Source: the DeepSol protein solubility set

assay: soluble on expression in E. coli; label from the status in PepcDB or PDB records

**Q.** For “MSYPLFDKDEHWHKPEQAFLTDDHRTILRFAVEALMSGKGAVLVTLVEIRGGAARPLGAQMVVREDGRYCGFVSGGCVEAAAAFEALEMMGSGRDREIRYGEGSPWFDIVLPCGGGITLTLHKLRSAQPLLAVLNRLEQRKPVGLRYDPQAQSLVCLPTQTRTGWNLNGFEVGFRPCVRLMIYGRSLEAQATASLAAATGYDSHIFDLFPASASAQIDTDTAVILLCHDLNRELPVLQAAREAKPFYLGALGSYRTHTLRLQKLHELGWSREETTQIRAPVGIFPKARDAHTLALSVLAEVASVRLHQEEDSCLPPSS”, which “soluble on expression in E. coli” value is on record?
**A.** not soluble

**Q.** For “MSLNDQYEALYQTFRWLVPTQFNIADACCHRWAASSPDARRIAIYYEDEAGNREVWTYARLAEAANQLANGLVKMGVERGDRVGVVLGQRPETVVAHMAIYSVGAVVLPLSPLFGPEALESRLRDADARVAIVDYASSANLLAISDNCPNLHQIIGIGFADERVLPWRSLLARQPNEFKMVATRASDPAILMYTSGTTGAPKGALLPHSVLIGNLPGFVASQDWFPRPGDVFWSPADWAWTGGMMDALLPTLYFGHPIVGTRGRFTPERAFELMERYQVTNTFLFPTALKMMMKSVPEPRGRYQLALRSIMSAGESVGETVFEWCEQALGITPNEMFGQTELNYVVGNSNRRWPARPGSMGRPYPGHRVAVIDEAGRPVKPGETGEVALNRFDIHGFPDPVLFLGYWRNEAATAAKFTDDWCRTGDLASIDADGYLWYAGRADDVFKSAGYRIGPGEIENCLLGHPAVANAAVVPKPDAERGALVKAYVVLTPEYQGRDPDSITQVLQEHVRDRLAPYEYPKEIEYVDALPMTTTGKIQRAVLRRREAERASGAHSEGHHHHHH”, which “soluble on expression in E. coli” value is on record?
**A.** not soluble

**Q.** Which “soluble on expression in E. coli” value does the source give for “MAHHHHHHMNIALSHIKKQRCARLYSISSSNNMENLSVAIKIHKYEQTENAPNITNYGYCSGFIKNLKINDDIYLTGAHGYFNLPNDAIQKNTNFIFIATGTGISPYISFLKKLFAYDKNNLYNRNSNYTGYITIYYGVYNEDSILYLNELEYFQKMYPNNINIHYVFSYKQNSDATSFYVQDEIYKRKTEFLNLFNNYKCELYICGHKSIRYKVMDILKSHDQFDEKKKKRVHVEVY” here?
**A.** not soluble

**Q.** With “MKKYFLGDQPTTLDASAFGFLINTIACPIESPLKEYGLSKENLGDYIDRIKMQYYPDLQLEHHHHHH” as the sequence, how does the “soluble on expression in E. coli” value read?
**A.** not soluble

**Q.** For “MTMPLRGLGPPDDTGVREVSTGDDHHYAMWDAAYVLGALSAADRREFEAHLAGCPECRGAVTELCGVPALLSQLDRDEVAAISESAPTVVASGLSPELLPSLLAAVHR”, which “soluble on expression in E. coli” value is on record?
**A.** soluble

**Q.** For “SMQVERESISRLMQNYEKINVNEITRFSDFPLSKKTLKGLQEAQYRLVTEIQKQTIGLALQGKDVLGAAKTGSGKTLAFLVPVLEALYRLQWTSTDGLGVLIISPTRELAYQTFEVLRKVGKNHDFSAGLIIGGKDLKHEAERINNINILVCTPGRLLQHMDETVSFHATDLQMLVLDEADRILDMGFADTMNAVIENLPKKRQTLLFSATQTKSVKDLARLSLKNPEYVWVHEKA”, which “soluble on expression in E. coli” value is on record?
**A.** soluble

**Q.** For “MQINKDELIKMGNHLKEARLSKQLTQEELARLSNISQATIVKYENGLRSISKKNDRILSDVLGAESFIKDMIQRKQQVLIDLEKYQTKNIFSREDLSKKLGIEISLLNKFLNQSRPLSKNAIVKITQLLSNEGKEILMDIKQEDGSFKLPIIDKIAMGKRIQEIRKNRGETLEKFGKNFTRPAGKNVVNRWEKGTNIPDIERLMNVAYLGKVAVPYILYGETFSKMLKKGSRISKFEKLDSFRMGLRLRKIRRDYRLEREDFGKFFSPPITKWSMDKYENGKDIPNTDRIIQYAYIGKVSLNFLIYGVN”, which “soluble on expression in E. coli” value is on record?
**A.** not soluble

**Q.** With “VKNILLLDSEGKRVAVKYYSDDWPTNAAKLSFEKYVFSKTSKTNARTEAEITLLDSNIIVYKFAQDLHFFVTGGENENELILASVLQGFFDAVALLLRSNVEKMEALENLDLIFLCLDEMVDQGVVL” as the sequence, how does the “soluble on expression in E. coli” value read?
**A.** not soluble

**Q.** With “MGSDKIHHHHHHAASITLPSGYTKNAVIKWNQTGKASKALINASKKGMMENTNSDAGSDNTLVNVTKLTNSQKVELSKYTLSLINSARSQLGKKPWTYRSGALRFADRVANQYYTHNKSCWDPDHYVAGILRAAKASGLNSNAGQVYEDEAGLPISSQYGSNLRTMSVLKNQIYFNVKQMLFGGFAGSDSQMNDSSRYTEWEHAGDLLGCRTKNYDAKTKYFGVSFSGLKDDQSKISVHMIGVAKRYIQNYKKFNH” as the sequence, how does the “soluble on expression in E. coli” value read?
**A.** not soluble

**Q.** With “MHHHHHHSSGVDLGTENLYFQSMAKSAEVKLAIFGRAGVGKSALVVRFLTKRFIWEYDPTLESTYRHQATIDDEVVSMEILDTAGQEDTIQREGHMRWGEGFVLVYDITDRGSFEEVLPLKNILDEIKKPKNVTLILVGNKADLDHSRQVSTEEGEKLATELACAFYECSACTGEGNITEIFYELCREVRRRRMVQ” as the sequence, how does the “soluble on expression in E. coli” value read?
**A.** soluble

**Q.** For “LVRSGRNITMQIIGYMTSHRKQHLEATDVAREFGYGREHFCRLFRKATGKTFKEFLTDLRLDDACRKLSGSSASIASIARECGFPDTRALQTAVQRKYGIRAQEYRERYENR”, which “soluble on expression in E. coli” value is on record?
**A.** soluble

**Q.** For “DHAAPLIFLIAGTGAPYNSTINEFLKKLYYGAGYHVVQLSSPTSYDFMSSASRFATPGVSTEDAEDLYRVMQAIRAQQAQLPVTDYYLTGYSLGALNAAFVSKLDETRRSFNFKKVLLLNPPVNLYTSISNLDKLVQTNVKGINNTTTFYELVLAKLTRYFRQKGYIDLNDALLFDFQQSKQHLTNEQMAMLIGTSFRFSSADIAFTSDLINRRGLIIPPKFPISEGTSLTPFLKRALQCDFDCYLTEQVIPMWRARTDGGSLLQLVDQVSLYALKDYLHSNTKIAVMHNADDVILGAGDLGFLRKTFGDRLTVYPYGGHCGNLNYRVNTDAMLEFFRG”, which “soluble on expression in E. coli” value is on record?
**A.** not soluble

**Q.** Which “soluble on expression in E. coli” value does the source give for “MGSDKIHHHHHHMKIDDIDAFVAVIRCQSISHAAESLDLTQPAITRRVQNFEQALGVELFDRNTKPLKPTPMGIQVYQKCLAILREMDSLRELVASDTPPSGLLRLGVPQTIGDVVLLDALKQLRGEFPDLRAQVSTGWGSHLIGKIENGELDAAAALFPAGKIFPDNIVGQSIGKMELVVVCAKGSVPKKPGKLADCYEQGWVLNPDGCGFRAGLQRTLTDQGLSMKVNLETFGTELQLGLVADGMGLGLVPRPLLERSAHREQLVVLPLKDFKPVMDLWLFYPRFLGNLQAPVEAFGALVARSLKPLSAAA” here?
**A.** not soluble

**Q.** Which “soluble on expression in E. coli” value does the source give for “MKCPFCNPIKENILYEDDTIRILLDNYPANPGHLLIVPRRHVTKLEELSEGEKASLLRGIEIAIEALKKTLNPDGFNVGINIGKAAGQTVEHLHIHVIPRFNNDCKYPKGGIRKAVLDVKDENLEDEERWTKNRLPREKVEELRRALHGG” here?
**A.** soluble

**Q.** For “MGSDKIHHHHHHLDGQALKQAVTPYFAGVLHEGLSRLKAEVYQEMEEIRLRAAQPLLLKIGESEWGLTSRGELTKKLPEAINASREDLYRTIASISDNSLYALEEEIRRGFITIPGGHRVGLAGQVIVQAAGIKGIKEFSSICFRLAREKKGCARTILPHIISTGTIVNTLIISPPRCGKTTILRDIARSISTGSSACPPHNIAIIDERSEIAGTHRGLAQLDVGIRSDVLDACPKSWGMMMAIRSLSPQVLIADEIGRKEDVEALQECVNAGVAVICSIHARNLEELSKRPLIKKLLSQGAFRLGVVLSRRNGPGTVEEIIRWD”, which “soluble on expression in E. coli” value is on record?
**A.** not soluble

**Q.** With “MSIHSASPIIRRKSRKIWVGNVPVGGDAPIAVQSMTNTETCDVAATVAQIRRLEDAGADIVRVSVPDMDAAEAFGKIKQQVNVPLVADIHFDYRIALRVAELGVDCLRINPGNIGREDRVKAVVDAARERNIPIRIGVNAGSLEKDLQKKYGEPTPEALLESAMRHVDHLDKLDFQNFKVSVKASDVFMAVAAYRLLARQIEQPLHLGITEAGGLRSGTVKSAVGLGMLLAEGIGDTIRISLAADPVEEIKVGFDILKSLHLRSRGINFIACPSCSRQNFDVVKTMNELEGRLEDLLVPMDVAVIGCVVNGPGEAKEAHVGLTGGTPNLVYIDGKPSQKLTNDNLVDELERLIRQKAAEKAEADASLIARG” as the sequence, how does the “soluble on expression in E. coli” value read?
**A.** not soluble

**Q.** With “MSLTRIKLIATDVDGTFLNQQRTYNHNRFAAQLNRLSSASIRFVVASGNHLGHLKDVFAPTPQVQTFVAENGGLIVDHNRTLAEAQLPLPVVREVVQAILADQTLRPQLLRLSGAHGTYLNRQDRSLDEASQDYFFNNLVRVDDLTQVNDTIYKINGEWPNDSIQTIAAKLNAHFPGLINATASGFGSIDIVAPHMNKAVGLTQLAATWHITPAEIAAFGDNDNDREMLAHVGLGVAMRNGTDSVKEVADLITPHDNNHEGVLDVIDTILADEGHHHHHH” as the sequence, how does the “soluble on expression in E. coli” value read?
**A.** soluble

**Q.** For “FYGEKATLNDGKLTSAELSQMTISGEKHVTEEEFGYCTEYVLKLGMSVSQEVEKQKFNQKKFESKVSKIATSVVVASDKDNGFVKVHAHTEKPNLLLELGLNYGEFELVKIENMNLQVAKQKPAPVKRNIKPAIVVTVPTEAFADRIREDYDIQAILCTDDTGAPSVFSLLEAVKLTHSSNIIFLLHDKNYFLSANEALKQLKHQKISADCVMTTNPIESLAALTVFNSDLNIHTNVKTMRRFVKGFASATITQASKKYKENRIEVNKGDFIAVANNSICVSEKELVQCVFNTIDHLLKKVKKPEFLLAYYGKDITAEEAEAMKEKIEKKYKLFCEFSPGEQKVFSYILGIQ”, which “soluble on expression in E. coli” value is on record?
**A.** soluble

**Q.** Which “soluble on expression in E. coli” value does the source give for “MSLIARDAHEGQFRSSGEPYITHPVAVASIIAQLHLDHEAVMAALLHDVIEDTPYTEEQLKEEFGASVAEIVDGVSKLDKLKFRTRQEAQVENFRKMILAMTRDIRVVLIKLADRTHNMRTLGSLRPDKRRRIAKETLEIYCPLAHRLGIEHIKNELEDLSFQAMHPHRYEVLKKLVDVARSNRQDLIERISQEIKVRLENSGIFARVWGREKHLYKIYQKMRIKDQEFHSIMDIYAFRVIVKNVDDCYRVLGQMHNLYKPRPGRVKDYIAVPKANGYQSLQTSMIGPKGVPVEVHIHTEDMEQVAEMGITAHWVYKENGKNDSTTAQIRVQRWLQSLVEIQQSVGNSFEFIENVKSEFFPKEIYVFTPKGRIVELPMGATAVDFAYAVHSDVGNTCVGVTVEHKPYPLSKALESGQTVNIITDPNAHPEVAWLNFVVTARAKTRIRHYLKQRCEEDAVKLGEVELNVALQPHNLGDFSIQQIRTVLDALALSSLDELLREIGLGNQSASMIAHQFVGVPLESANTKNLEFESKILTIAPMQVGKTQFAQCCHPILGDPIVGCCTEKNTVVVHHQHCASLKNACRQSLAKWDNVQSAVNFEAELQIEILNEQNALLSLMTAISASESSLQNIWTEELENNLLLVILQVCVKDIKHLANIVHRIKGITGVVNVKRNINELEGHHHHHH” here?
**A.** not soluble

**Q.** Which “soluble on expression in E. coli” value does the source give for “MQADFNRPVLAVDTGTSYLSLALRADGETCLFHQEVGSRQSALILPEIRTLFHDAGITAADLGAIVYAKGPGAFTGLRIGIGVAQGLATPFDTPLIGVPSLDAAASLPPPQSCILAAADARMGEVFYAWFDTLNRRRLSDYQVGRAADIRLPEGCAFSDGIGNAFALENRPPFSGKPDMPTAADFLNLAAEGGFPAVAAAHAELLYVRNKIALTAKEQAERRARLLEHHHHHH” here?
**A.** not soluble

**Q.** For “MGSDKIHHHHHHMLTRLEVNCFKNLLGFSVNFGPFNCVAGLNGVGKSNIFDSIKFLSLLADKSIVEAALEVRESDSTDPLDIFWTNGEFRSERLSLAVEMIVPVDVIDDFGRRAKATSTFLRYEVELARDDGERESGSLGLHLVKETLIHINKGEAVDRLRFPMSAAKFRENIVINKRKGAGFISTHQDRDGIVEIHLHQDGGSSGQPQKFPARNAPKTVVSNTNSGVWPTILAARREMQSWRFLSLEPSAMRRSNKIHEEGAVSSGGGRLGAALYKLHRKDPSVYTRVASRLSEIVPTSDIRVDVDQVRQLLTVEVKERSGAFLPARALSDGTLRFLALSIIAEDPDFNGVLCFEEPENGIHPARVGAMLALLKELSVDPHDEVSESNSMRQIVVATHSPVLVSLEEPNDLIFADVVKVKGPNGMPATTIRCKCLRESWRFSDEEGNGIDRASIISYLELPPDRQISLNLKTTGVAINLEATV”, which “soluble on expression in E. coli” value is on record?
**A.** not soluble

**Q.** For “ERVKWRKQIEASGARLKSMIDQTPAPTLVLMGDNLVIEQVNTSMLKLLGHEENIVGIPLLTLMPELKGQYIWEQVEKVYREGIPFDQSEVRVSHKRTGMMEDYYYNIAYRPLKEDGRITGMIQVAIDVT”, which “soluble on expression in E. coli” value is on record?
**A.** not soluble
